These results are taken from US20170137467A1 (CHROMOTEK, published 2017).

Ends that are not written are not given here. * marks the point of attachment. Biotin = O=C1N[C@H]2[C@H](CS[C@H]2CCCCC(=O)*)N1; ethylene glycol linker = not defined here

In assay [1] the target is T1, recombinant human β-catenin, full-length (human, UniProt P35222 1-781, limits assumed).
T1 construct: Purified from E. coli; also called full-length β-catenin
T1 sequence (looked up): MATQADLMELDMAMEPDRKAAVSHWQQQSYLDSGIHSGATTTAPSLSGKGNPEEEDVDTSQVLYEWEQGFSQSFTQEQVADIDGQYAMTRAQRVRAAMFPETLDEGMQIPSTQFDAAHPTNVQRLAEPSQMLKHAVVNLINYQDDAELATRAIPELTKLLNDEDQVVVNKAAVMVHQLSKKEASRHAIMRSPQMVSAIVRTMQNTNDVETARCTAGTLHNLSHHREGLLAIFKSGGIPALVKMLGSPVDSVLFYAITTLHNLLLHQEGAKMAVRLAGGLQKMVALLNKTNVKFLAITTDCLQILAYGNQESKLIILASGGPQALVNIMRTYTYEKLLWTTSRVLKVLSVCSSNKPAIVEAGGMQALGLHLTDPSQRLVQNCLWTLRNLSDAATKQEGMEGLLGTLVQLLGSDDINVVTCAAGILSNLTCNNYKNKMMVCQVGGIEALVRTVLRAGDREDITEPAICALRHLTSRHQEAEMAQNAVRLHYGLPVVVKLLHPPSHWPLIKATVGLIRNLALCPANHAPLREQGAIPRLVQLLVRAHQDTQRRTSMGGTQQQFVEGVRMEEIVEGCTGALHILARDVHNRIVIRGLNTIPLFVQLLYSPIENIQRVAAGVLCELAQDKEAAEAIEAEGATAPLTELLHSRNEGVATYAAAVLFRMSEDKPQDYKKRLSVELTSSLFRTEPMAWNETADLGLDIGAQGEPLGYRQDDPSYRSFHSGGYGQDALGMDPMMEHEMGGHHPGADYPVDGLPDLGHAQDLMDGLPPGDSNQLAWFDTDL
The experiment in a line: not stated at this place (description). As to the method:
The dissociation was induced by two injections of regeneration solution of 15 μl each at the identical flow rates.

Assay [2] concerns the target T2, pTag1 peptide (PDRVRAVSHWSS), biotinylated (reading uncertain).
T2 construct: Immobilised on Streptavidin biosensors
T2 peptide: {Biotin-ethylene glycol linker}-PDRVRAVSHWSS
The assay can be described thus: biolayer interferometry, biotinylated peptide on Streptavidin biosensor; reference original BC2T (SEQ ID NO:4). The protocol: Biolayer interferometry (BLI)-based affinity measurements were used to assess two improved variations of the original BC2T sequence (a: […], pTag1 SEQ ID NO:33; b: […], pTag2 SEQ ID NO:34) in comparison with the original BC2T sequence (c: BC2T SEQ ID NO:4).
The shaking rate was 1200 rpm. As a reference, each peptide was also incubated with BLItz buffer only according to the protocol above. […] The sensor was regenerated by sequential dips into 10 mM glycine pH 2.0 and BLItz buffer (repeated three times). Raw data were analysed using the software BLItz Pro (fortéBio) and a 1:1 binding model.

The target of a further assay is T3, AAVSHWQQ
T3 construct: N-terminal truncation; also called β-catenin aa 20-27
T3 peptide: AAVSHWQQ
The assay can be described thus: truncated peptides of β-catenin aa 14-27 on OVA-microspheres, biotinylated BC2-Nb, streptavidin-PE. The text has this:
(§1) As negative controls, microspheres comprising Ovalbumin and the Myc-peptide ([…]) covalently coupled to OVA-microspheres were used. […] Evaluation of the PE-signals were done in a Flexmap 3D (Luminex).

The target of another assay is T4, MEPDRKAAVS
T4 construct: C-terminal truncation; also called β-catenin aa 14-23
T4 peptide: MEPDRKAAVS
Described as above.
Description: as §1

The next assay concerns the target T5, MEPDRKAAVSH
T5 construct: C-terminal truncation; also called β-catenin aa 14-24
T5 peptide: MEPDRKAAVSH
The description is as above.
Description: as §1

The target of a further assay is T6, RKAAVSHWQQ
T6 construct: N-terminal truncation; also called β-catenin aa 18-27
T6 peptide: RKAAVSHWQQ
The assay is described as above.
Description: as §1

A further assay concerns the target T7, EPDRKAAVSHWQQ
T7 construct: N-terminal truncation; also called β-catenin aa 15-27
T7 peptide: EPDRKAAVSHWQQ
Described as above.
Description: as §1

In a further assay the target is T8, MEPDRKAAVSHW
T8 construct: C-terminal truncation; also called β-catenin aa 14-25
T8 peptide: MEPDRKAAVSHW
The assay is described as above.
Description: as §1

The target of another assay is T9, DRKAAVSHWQQ
T9 construct: N-terminal truncation; also called β-catenin aa 17-27
T9 peptide: DRKAAVSHWQQ
The assay is described as above.
Description: as §1

Another assay concerns the target T10, MEPDRKAAVSHWQ
T10 construct: C-terminal truncation; also called β-catenin aa 14-26
T10 peptide: MEPDRKAAVSHWQ
Described as above.
Description: as §1

The next assay addresses T11, KAAVSHWQQ
T11 construct: N-terminal truncation; also called β-catenin aa 19-27
T11 peptide: KAAVSHWQQ
The description is as above.
Description: as §1

The target of a further assay is T12, MEPDRKAAVSHWQQ
T12 construct: full-length peptide of both truncation series; also called β-catenin aa 14-27
T12 peptide: MEPDRKAAVSHWQQ
The assay is described as above.
Description: as §1

B1: BC2 nanobody (VHH)
VHH: QVQLVESGGGLVQPGGSLTLSCTASGFTLDHYDIGWFRQAPGKEREGVSCINNSDDDTYYADSVKGRFTIFMDNAKDTVYLQMNSLKPEDTAIYYCAEARGCKRGRYEYDFWGQGTQVTVSS
notes: Alpaca VHH, 122 aa; also called BC2-Nb; BC2 nanotrap (BC2-Nb immobilized on agarose/Sepharose beads); not shown: C-terminal 6xHis-tag added by the pHEN6 vector
As for B1, the Kd in assay [1] came to 3.7 nM. Also, the “fold slower koff than for original BC2T” value in [2] came out at 7 fold. Also, the binding result with AAVSHWQQ is “no binding (tested: 1 µg/ml BC2-Nb)”; in the assay with MEPDRKAAVS, “no binding (tested: 1 µg/ml BC2-Nb)”; with MEPDRKAAVSH it was “no binding (tested: 1 µg/ml BC2-Nb)”; in the assay with RKAAVSHWQQ, “binds”; in the assay with EPDRKAAVSHWQQ, “binds”; with MEPDRKAAVSHW, “binds”. Moreover, the binding result in the assay with DRKAAVSHWQQ is reported as “binds”; in the assay with MEPDRKAAVSHWQ, “binds”; in the assay with KAAVSHWQQ, “no binding (tested: 1 µg/ml BC2-Nb)”; with MEPDRKAAVSHWQQ, “binds”.
